Data as given in patent US20090074795A1, “Methods for addressing ocular diseases through interference with the wnt signaling pathway” (priority 2007, published 2009).
“Also recorded” adds a separate entry of the source.

What was measured:
OIR rats = assay: Retinal VEGF (western blot) after intravitreal DKK1 in OIR rats; assay type: in vivo, rat; details: 3 μg/eye intravitreal at P15, retinas at P18, western blot, vs BSA
Description: To determine the effect of the wnt pathway blockade of the VEGF expression induced by ischemia, DKK1 was injected into the vitreous of the OIR rats at P15. The rats were then maintained in normoxia for 3 days, and the VEGF expression in the retina was measured.
The same amount of BSA was injected as control. The same amount of total protein from each rat was used for western blot analysis using specific antibody for VEGF. Each lane represents an individual rat.
Intravitreal injection: All solutions will be sterilized by filtration and assessed for endotoxin. Animals will be anesthetized, and compounds will be injected into the vitreous of the one eye through the pars plana using a Hamilton syringe. The left eye will receive the same volume of vehicle and will be used as the control. Following injection, the animals will receive equal amounts of topical antibiotic ointment on both eyes. The animals will then be kept in normoxic conditions until the necessary time point for evaluation

primary RCEC = assay: HIF-1 activation and VEGF expression induced by LiCl in primary RCEC; assay type: cell-based, bovine; details: 50 mM LiCl plus 85 ng/ml DKK1, 24 hours
Description: Blockade of the wnt pathway by DKK1 down-regulates VEGF and HIF-1 expression and reduces vascular leakage in the retina of diabetic rats. To activate the wnt pathway, primary RCEC were treated with 50 mM LiCl, a specific activator of the wnt pathway, in the presence or absence of 85 ng/ml DKK1, a specific inhibitor of the wnt pathway, or BSA for 24 hours. Hypoxia was used as a positive control for HIF-1 activation. The HIF-1 nuclear translocation, a key step in its activation, was measured by immunocytochemistry. Both LiCl and hypoxia increased nuclear levels of HIF-1α, indicating an increased nuclear translocation.
According to embodiments of experimental data, RCEC were exposed to normoxia (FIG. 17A), hypoxia (1% O2) (FIG. 17B), 50 mM LiCl with BSA (FIG. 17C), or 50 mM LiCl plus 85 ng/ml DKK1 (FIG. 17D) for 24 hours. The nuclear translocation of HIF-1α was determined by immunocytochemistry with an antibody against HIF-1α. […] In FIG. 17E, the total levels of VEGF and HIF-1α were determined by western blot analysis with an antibody against HIF-1α or VEGF.

[1] = system: bovine retinal capillary endothelial cells (BRCEC); assay: Intracellular ROS generation assay in BRCEC; assay type: cell-based; details: DKK1 6.25-100 nM, 2 h, CM-H2DCFDA
Description: A primary culture of bovine retinal capillary endothelial cells (BRCEC) were exposed to 30 mM glucose or TNF-α in the absence or presence of various concentrations of DKK1 (6.25-100 nM) for 2 h. Aminoguanidine was used as a positive control as it is a known inhibitor of ROS generation.
According to embodiments of experimental data shown in FIG. 14, BRCEC were exposed to 30 mM glucose or 1 μg/ml TNF-α in the absence or presence of various concentrations of DKK1 (6.25-100 nM) for 2 h, 10 μM aminoguanidine (AG) was used as positive control. Intracellular ROS generation was measured using CM-H2DCFDA, and expressed as fluorescent unit per well (means±SD, n=3).

B1: DKK1: Purified Dickkopf-1 protein (R&D System), specific inhibitor of the wnt pathway binding LRP5/6; mouse protein in mice, human in HUVEC (protein, UniProt O54908 32-272; O54908 32-272, looked up)
Dickkopf-related protein 1 1: TLNSVLINSNAIKNLPPPLGGAGGQPGSAVSVAPGVLYEGGNKYQTLDNYQPYPCAEDEECGSDEYCSSPSRGAAGVGGVQICLACRKRRKRCMRHAMCCPGNYCKNGICMPSDHSHFPRGEIEESIIENLGNDHNAAAGDGYPRRTTLTSKIYHTKGQEGSVCLRSSDCAAGLCCARHFWSKICKPVLKEGQVCTKHKRKGSHGLEIFQRCYCGEGLACRIQKDHHQASNSSRLHTCQRH
Dickkopf-related protein 1 2: TLNSVLINSNAIKNLPPPLGGAGGQPGSAVSVAPGVLYEGGNKYQTLDNYQPYPCAEDEECGSDEYCSSPSRGAAGVGGVQICLACRKRRKRCMRHAMCCPGNYCKNGICMPSDHSHFPRGEIEESIIENLGNDHNAAAGDGYPRRTTLTSKIYHTKGQEGSVCLRSSDCAAGLCCARHFWSKICKPVLKEGQVCTKHKRKGSHGLEIFQRCYCGEGLACRIQKDHHQASNSSRLHTCQRH
modifications: mouse protein in mice, human in HUVEC
OIR rats
  VEGF over-expression in the retina: significantly blocked VEGF over-expression
Primary RCEC; immunocytochemistry
  HIF-1 nuclear translocation induced by LiCl: inhibited the HIF-1 nuclear translocation; also recorded: blocked
Primary RCEC; western blot
  HIF-1α over-expression induced by activation of the wnt pathway: blocked
  VEGF over-expression induced by activation of the wnt pathway: blocked
[1]; 1 μg/ml TNF-α
  ROS generation induced by TNF-α: blocked the ROS generation
[1]; 30 mM glucose
  ROS generation induced by high glucose: blocked the ROS generation
